Here are results for two molecules from patent US6436691B1, “Chemical compounds” (Zeneca Limited, priority 1995, dated 2002).

Where a chain is given by its changes, count along the chain named. Names may count otherwise.

Data set [1] is described as follows: Conversion of Hipp-Asp to hippuric acid by mutant and native human CPB, HPLC assay (Example 6). The data set is classed as biochemical. Conditions: 5 hr at 37° C.; 4 μg enzyme; 0.5 mM substrate. As for the experimental part: (§1) Purified mutants of human CPB (D253K and D253R; Examples 1-3) and native human CPB, produced as described in Reference Example 12, were assayed for their ability to convert either hippuryl-L-aspartic acid (Hipp-Asp—Reference Example 2), hippuryl-L-glutamic acid (Hipp-Glu—Reference Example 1) or hippuryl-L-arginine (Sigma Chemical Company—cat no. H6625) to hippuric acid using a HPLC based assay.
(§2) The reaction mixture (250 μl) contained 4 μg human CPB (native or mutant) and 0.5 mM Hipp-Asp or Hipp-Glu in 0.025 M Tris-HCL, pH 7.5. Samples were incubated for 5 hr at 37° C. The reactions were terminated by the addition of 250 μl of 80% methanol, 20% distilled water, 0.2% trifluoro acetic acid and the amount of hippuric acid generated was quantified by HPLC.
(§3) HPLC analysis was carried out using a Hewlett Packard 1090 Series 11 (with diode array) HPLC system. Samples (50 μl) were injected onto a Hichrom Hi-RPB column (25 cm) and separated using a mobile phase of 40% methanol, 60% distilled water, 0.1% trifluoro acetic acid at a flow rate of 1 ml/min. The amount of product (hippuric acid) produced was determined from calibration curves generated with known amounts of hippuric acid (Sigma-H6375). The results are shown in Table 1 and are expressed as the percentage conversion of substrate into product in 5 hr at 37° C. with 4 μg enzyme.

Data set [2] has as its system LoVo colorectal tumour cells. Conditions: 100 μg enzyme added to assay wells containing glutamic acid prodrug.
Data set [3] is described as follows: Conversion of Hipp-Arg to hippuric acid by mutant and native human CPB, HPLC assay (Example 6). The data set is classed as biochemical. Particulars: 5 hr at 37° C.; 4 μg enzyme. Here is the method:
as §1, §2, §3

Data set [4] in a line: Conversion of Hipp-Glu to hippuric acid by mutant and native human CPB, HPLC assay (Example 6). The data set is classed as biochemical. Particulars: 5 hr at 37° C.; 4 μg enzyme; 0.5 mM substrate. As for the experimental part: as §1, §2, §3
Data set [5] is described as follows: Km and kcat of recombinant HCPB against Hipp-Arg, spectrophotometric assay. The data set is classed as biochemical. Conditions: Hipp-Arg 0.75-[…]; CPB 1 μg/ml; 37° C.; pH 7.5. As for the experimental part:
Purified human CPB, produced as described in Reference Example 12, was assayed for its ability to convert hippuryl-L-arginine (Hipp-Arg; Sigma) to hippuric acid using a spectrophotometric assay.
Measurements were carried out at 37° C. in 0.25 mM Tris HCl buffer, pH 7.5 using 1 cm path length cuvettes in a total volume of 1.0 ml using a Perkin Elmer Lambda 2 spectrophotometer. Km and Vmax values were calculated using the ENZFITTER software programme (Biosoft, Perkin Elmer). Kcat was calculated from Vmax by dividing by the enzyme concentration in the reaction mixture.

Data set [6] in a line: Activity against Hipp-Glu in crude E. coli periplasmic shockate relative to D253K or D253R HCPB (Example 16). The format is biochemical. The source says: (§4) A number of other mutant HCPBs have been constructed in a similar manner to the methods described in Reference Examples 7 and 8, and Examples 12, 13, 14 and 15. In each case oligos were constructed to introduce specific changes in the gene sequence by methods similar to those described above. In some cases additional mutations were identified upon complete sequencing of the mutated gene, and these were presumably introduced during the PCR reactions. Mutants with enzyme activity against substrate analogues (see Example 18 below) have been identified, and examples of these are given in Table 4 below. […] This material is subsequently referred to as periplasmic shockate or shockate and is prepared by the following procedure.
(§5) 1. A single colony was used to inoculate 75 ml of L-broth nutrient media containing 10 μg/ml tetracycline and arabinose to a final concentration of 0.01% (w/v). Incubation was performed at 20° C. with shaking (250 rpm) for about 60 hours.
(§6) 2. The cells were then harvested by centrifugation at 4° C.
(§7) 3. The cell pellet was re-suspended in 300 micro-liters of 20% sucrose (w/v) containing 1 mM EDTA in 200 mM Tris-HCl at pH7.5, and incubated at room-temperature for 15 minutes.
(§8) 4. Periplasmic shockate was generated by the addition of 450 micro-liters of distilled water, and a further incubation at room-temperature for 15 minutes.
(§9) 5. Cellular remains were removed by centrifugation, and the supernatant assayed for enzyme activity as soon as possible after preparation and kept at 4° C. prior to assay.
The activity of [G251T,D253K]HCPB was measured using the assay conditions described in Example 17 but using either 50 μl of a neat or 1 in 10 or 1 in 100 dilution of [G251T,D253K]HCPB crude E.coli periplasmic shockate (shockate) sample in place of purified enzyme. Samples were incubated for 24 h at 37° C. […] The amount of Hippuric acid produced in 24 h was quantified by HPLC as described in Example 17 and the results are shown in Table 6 and are expressed as the percentage conversion of substrate into product in 24 h at 37° C.

A short description of data set [7]: Activity against Hipp-Asp in crude E. coli periplasmic shockate relative to D253K or D253R HCPB (Example 16). The format is biochemical.
Source text: as §4, §5, §6, §7, §8, §9
The activity of [G251T,D253K]HCPB was measured using the assay conditions described in Example 17 but using either 50 μl of a neat or 1 in 10 or 1 in 100 dilution of [G251T,D253K]HCPB crude E.coli periplasmic shockate (shockate) sample in place of purified enzyme. Samples were incubated for 24 h at 37° C. […] For other HCPB mutants, the reaction volume was 250 μl and contained 125 μl of neat shockate or 1 in 50 dilution of shockate. The shockate samples were prepared as described in Example 16. The amount of Hippuric acid produced in 24 h was quantified by HPLC as described in Example 17 and the results are shown in Table 6 and are expressed as the percentage conversion of substrate into product in 24 h at 37° C.

B1: Native HCPB: purified recombinant native human pancreatic carboxypeptidase B (protein, UniProt P15086 111-417, looked up)
Carboxypeptidase B: ATGHSYEKYNKWETIEAWTQQVATENPALISRSVIGTTFEGRAIYLLKVGKAGQNKPAIFMDCGFHAREWISPAFCQWFVREAVRTYGREIQVTELLDKLDFYVLPVLNIDGYIYTWTKSRFWRKTRSTHTGSSCIGTDPNRNFDAGWCEIGASRNPCDETYCGPAAESEKETKALADFIRNKLSSIKAYLTIHSYSQMMIYPYSYAYKLGENNAELNALAKATVKELASLHGTKYTYGPGATTIYPAAGGSDDWAYDQGIRYSFTFELRDTGRYGFLLPESQIRATCEETFLAIKYVASYVLEHLY
In general, Km refers to the substrate concentration at which the rate is half of its maximum. Regarding B1, the “Hipp-Asp (% conversion to Hippuric acid)” value in data set [1] was found to be 0%. In addition, in data set [2], the “cytotoxicity of the glutamic acid prodrug with enzyme added” value is “does not significantly enhance”. For the same molecule, the “Hipp-Arg (% conversion to Hippuric acid)” value in data set [3] came to 100%. For the same molecule, the “Hipp-Glu (% conversion to Hippuric acid)” value in data set [4] amounted to 0%. In data set [5], the Km worked out at 180 µM and the “kcat against Hipp-Arg” value is 65 s⁻¹.

B2: [I201T, D253R]: HCPB mutant with I201T and D253R, (His)6-c-myc tag (protein, UniProt P15086 111-417, looked up, variant I201T D253R)
Carboxypeptidase B: B1 Carboxypeptidase B with I201T, D253R
modifications: (His)6-c-myc tag
With B2, in data set [6], the “Hipp-Glu, activity relative to D253K HCPB or D253R HCPB” value is “b (activity equivalent to D253R HCPB)”. Also, the “Hipp-Asp, activity relative to D253K HCPB or D253R HCPB” value in data set [7] is “b (activity equivalent to D253R HCPB)”.
